Reference: the supplement of paper PMC12042874
± gives the uncertainty stated by the source.

Test: amyloid nucleation score (Sup35N fusion, yeast selection) (log enrichment); library NNK2; higher = more nucleation; inactive = no reads after selection
Procedure, shortened: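 Yeast lacking psi expressed peptides of 20 random codons fused to Sup35N, received 100 μM copper sulfate for 24 hours, and were then grown for 7 days at 30°C on medium lacking adenine and uracil. Illumina sequencing of input and output plasmid inserts provided the reads. Nucleation scores are DiMSum log enrichments of output over input, centred on the mode of non-aggregating sequences. Any sequence with under 100 input reads was excluded.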

Substance | amyloid nucleation score
TSGLMMSVCKFDLWQNVND | 3.81 ± 0.09
RSAWYTG | -0.203 ± 0.5
VGLACSLS | -1.07 ± 0.78
VCDGV | -0.582 ± 0.44
FIAFFSWFFGWWRKMQAQAL | inactive
KSLYCVNFLCRPECANPSSS | 6.592 ± 0.029
VVVNTYYSGIFMQVFLFL | 6.76 ± 0.037
LLSGEDQLMKYLKSKNSCLW | -0.67 ± 0.79
WVSCVVCFWIDHESAALESV | 8.784 ± 0.036
CEHRSLTFWHNGLLD | -0.143 ± 0.65
PCRYSSKSNYTW | -0.507 ± 0.76
YWANMVG | -0.328 ± 0.48
FKNLAFTFNLQCL | 6.472 ± 0.051
VNIFVLLYLYVWNASIVITF | -0.221 ± 1.1
LCGHSNTAVWARHPEYSLVS | inactive
QVLFVRFRRYVYQRMWACWG | 0.405 ± 0.74
TVIRNLVICSFEYCRDMITR | 8.195 ± 0.075
TTLMWVWFIGFWP | 6.139 ± 0.04
FLIKAKGFYSSLLATGGIEK | inactive
LFTEISKYQVYGVYWTALFE | -0.137 ± 1.1
IMVRVIAFNVL | 6.864 ± 0.041
EFILHVTQIAAIMDLRLVHM | 4.01 ± 0.11
FNGCFSCTMG | 8.109 ± 0.055
HVLSLGAGWKYVGVDECKE | 0.317 ± 0.31
KAKWFNFLFYNFLQYACLSQ | 1.37 ± 0.087

Substance | amyloid nucleation score
VASKGCRYYNRLADFLHWSK | 0.027 ± 0.74
LQYCHRGC | -0.179 ± 0.44
STASLHGVMLGMRLKNPLGV | -0.97 ± 0.63
ESDVSRDRMMALRNMYFCHR | 0.192 ± 0.74
HRTGWKIFVSW | 0.732 ± 0.17
EWTLWSSGLRAES | 0.217 ± 0.3
YHGVLSFLII | 1.29 ± 0.36
SDAFGRRHSSLAM | 1.56 ± 0.14
YCSYQVVRGRPSVAGRDNLQ | -0.424 ± 0.63
TSVNSILRYFRSRAMLKQGS | 1.11 ± 0.45
TCCKLEDSYSWSALKLTSLA | 1.27 ± 0.35
GGRRCGFITIRETNRTLLAL | -0.28 ± 0.55
YHWIIIRVA | -0.601 ± 0.79
ILLRMTITCMFTPYHAERRG | 4.61 ± 0.07
LHTLVALINACRNASGSVHD | 0.167 ± 0.65
SGIHEIFESVFFNTYFRRMT | -0.549 ± 1
EQKGSVTYCGYKMSDV | 4.97 ± 0.062
ICTALGGWWSKEVMSADMFL | 0.811 ± 0.67
SKGYYTLKVTYWTFR | -0.745 ± 0.44
VYNSFSAFFYG | 7.051 ± 0.036
AIVSMFGVITY | -2.57 ± 0.62
DSACFYENSM | -0.48 ± 0.79
QWVIKFIHRQIVVPFKFAGI | -0.385 ± 0.8
ASVCHTLVGILYDDEGARTR | 0.85 ± 0.4
TPVQDNYSYFIFKPIDESIA | 2.19 ± 0.12

Substance | amyloid nucleation score
MSVSLLSDIN | -0.497 ± 1
LGWINKWKRLSNIPIAKWHC | inactive
PNDAN | 0.043 ± 0.28
GITYVVHSTRGTYREPEGPW | 0.469 ± 0.65
YLPVLEVVPTNGVPHDRFWS | 1.08 ± 0.29
HLLIRGVMSTKNRCSLLVIG | -0.582 ± 0.44
NARWKDVYHPLTYCFVNLWT | 8.115 ± 0.034
LSEFYRLRYYTGCQ | 1.05 ± 0.31
NGWLFFWFSIRITTSQVTSL | 2.54 ± 0.098
VLRKEFVYSGCWAKRRLG | 0.165 ± 0.17
LKCSFAVTDAWIGNRRAQRQ | 1 ± 0.2
MSTGRCILRPFLGSPRSSVV | inactive
INVFGGHLMSYMKSISRVVC | -1.13 ± 0.64
KCILDRVRGTGLGIMKLKRG | 0.306 ± 0.65
YRWDHILDVGSSFVL | 3.61 ± 0.064
CVDSKWLYFGRWSTQVIDI | -0.196 ± 1
PIARN | -0.47 ± 1
SRPDLHHAKALYFNDLRRE | 0.232 ± 0.27
FKINESSYVLWDGSSYCRAG | -0.711 ± 1.1
KRFGLVCVIQQAQKWVNGTG | 0.179 ± 0.51
EEKEVDVEVGRETHMSARDN | 0.563 ± 0.15
LCNSTNSESIIVLDITALTH | 0.405 ± 0.51
VVLRELRIYIMNVWDPRGTL | -0.998 ± 0.62
FERLNYQLREFYKVIKFSCV | inactive
LPCGVSLALHSWENYILNRP | 0.55 ± 0.52

Substance | amyloid nucleation score
SNSCHNAATRGYR | 0.315 ± 0.74
LGPLVYFLFVNIPNQGFFLC | 1.56 ± 0.16
SSTIITSLTHFCSTGDWEVV | -0.434 ± 0.24
VLWTIKGFPC | 1.63 ± 0.11
FDLNYPSVSIIGKVLCSGPV | inactive
LYPSFEDTLRWPSPRGMKMC | 0.182 ± 1.1
CMSRFGRCNFVHDTWMGFTR | 2.93 ± 0.1
CLDFYFIVGNFNQHLVRCVL | 1.79 ± 0.16
ACVCHREGCVAKGIIVM | 0.237 ± 1
LVCYV | 0.611 ± 0.46
WNKYLCFKFRFYLPFVNYWL | inactive
DSKWIM | -0.326 ± 0.46
TSRLNMVTSHVLKWCDNRSR | -0.516 ± 0.5
CCLENTRVLTVLVSLSMV | 0.582 ± 0.35
WLFIVFSTLS | -0.19 ± 1
TAVERVSTR | 4.94 ± 0.08
VYTWNGRSWEYWTCPTLRNP | 0.371 ± 0.8
ILLINCMFNQYSGC | 7.894 ± 0.075
FICSAYFECRRDSYEFFVGC | inactive
YICLAVGDVNGEMNYWVIRG | 6.865 ± 0.043
ITIFTSWPVIMLETVMCYCN | 5.32 ± 0.079
ELGFGMMIAPSKGEKGDGML | 3.37 ± 0.12
VMFYRRYYFKSMANLVDTFR | -0.932 ± 0.48
KAKYTTILCCIDRCGCIGQY | 8.613 ± 0.046
EPKFCGMDNHEL | 3.78 ± 0.14

Substance | amyloid nucleation score
TSVIIIGYCI | 5.997 ± 0.034
NGVDMVVAAGLSGCRWGRIR | 0.249 ± 0.39
WFYLCMFGAYLWRVRFDIRK | -0.428 ± 0.34
KVRTLINLRSRVTLRYDLSI | -0.237 ± 0.24
NGDMWKHIKRRQVNNRG | 0.881 ± 0.67
CVRCTFCIVSVICFSIYLSE | -0.448 ± 0.55
AHCIFVLDGAKFRLWCLGSG | 1.11 ± 0.41
IRDFYILAYRWLSQSHVMAN | inactive
VLYPMLNGGFMESLN | inactive
LNSANSFWCVRRYCGTAQMQ | -1.29 ± 1.1
HQAWSCSTVGFDLAVVNFAD | -0.197 ± 0.43
TLDGMQMSWFRNGV | 3.93 ± 0.13
KRLVGVTAMMCSFFLYLFLE | 0.859 ± 0.35
LHFQYERSWNARSTLM | 4.08 ± 0.076
IIIIATEHK | 3.48 ± 0.16
ISSEHNAWYEVA | inactive
PCQCKV | 4.16 ± 0.072
SSSRS | 0.66 ± 0.62
TWGGFRY | 1.76 ± 0.48
VDHSMVCWVRCMGC | 0.19 ± 1.1
CFFFISAVGPEILIVGFLGV | -0.684 ± 1
LFKRGIVGDRGTKG | -0.905 ± 0.48
NDLSWVRLSYHGLVLLGDVM | 0.193 ± 0.34
YSSNMASALSYICDPMIFNF | -0.703 ± 0.56
INSVFNGIGRVYRHW | -0.554 ± 1

Substance | amyloid nucleation score
CNERFERLFISVTGFVMRRH | -0.358 ± 0.39
LVFDACTPEEVGG | 0.735 ± 0.27
SDMTNS | -1.55 ± 0.64
RLTRALLCFTNKALDQCCST | inactive
CLKFFADGSQAGCSERAGLR | 0.041 ± 0.28
PGYSSNSCERDLLGRASVWL | -0.593 ± 0.74
YCVRVMYNKLRLHMNIVVVC | 0.705 ± 0.58
EDITI | -1.67 ± 0.41
CQMYYFYFNLLMWDMA | inactive
VVIILNDTNFLMINMVQRVM | 4.327 ± 0.039
RRMTCALYVIRWFSVHYFYL | -1.79 ± 0.75
SMICGFKLASHSVG | -0.65 ± 0.45
SILALTE | -0.072 ± 1.1
NCECMRWDDF | -0.561 ± 0.38
VNYRNLMKESLCILRQTYTL | 0.031 ± 0.65
LLTNAVRGLG | 0.302 ± 0.56
VWYIALLQCQVRITYKGRVR | 5.43 ± 0.073
FLLPIWGSNHNTLNFR | -0.547 ± 1.1
VLVMVRTFNGNILPFLAPDL | 5.714 ± 0.024
FVECILASLWTRFEKIRMAC | -0.108 ± 1.1
CGSRQAA | 5.3 ± 0.085
LMAKQFIPGTYTLRGSSFHG | -0.677 ± 0.3
GTHPCLQVCDDRGDWLLA | 0.868 ± 0.29
KHLRFASEVNFSARVPPPWL | -0.229 ± 0.33
FHAKRTINMNGATVQYGLYA | -0.354 ± 0.76

Substance | amyloid nucleation score
SDIYRSSRLQ | 0.179 ± 0.33
FVDYVTCSQYVNIFRDTLGL | -0.677 ± 0.38
SAHFTIRKELFLKDTRRVV | -0.47 ± 1
LCYGFEYHVDGLYNVSYESS | 0.298 ± 0.37
LSSSMSSSRASQDFGFLGVH | 0.877 ± 0.48
FKLICTRSWLRLG | 3.91 ± 0.056
CVMIESLKVFISPWLASRIR | -0.291 ± 0.65
FAFYRSFCWRVTWFSWVGGS | inactive
MLFNLYISTSTLVDRS | 1.23 ± 0.17
IGMCLILRNPYIVLSDRWSS | 0.308 ± 0.39
SSLTANGNNSMT | -0.173 ± 0.63
LNVKFK | -0.966 ± 1.1
DGCLARGYNKGVHDGVVEYL | -0.088 ± 1.1
YRWVRVSNRGCRTNMIKYMS | -1.66 ± 0.36
PLLRSKKKSALYPA | -0.021 ± 0.63
TTTAERSVRPVSCDGFIACG | 3.56 ± 0.054
FWCYELDNPDGYLIFLHQPV | inactive
YQNIVIRLLVLCYNVTDGLV | 3.02 ± 0.14
YWSCTMRVFRVTLNCSNS | 3.44 ± 0.066
NDLESMYSEGFPLLNTAHK | inactive
YLIKMTCVGIMFSV | 6.592 ± 0.04
